Measured values as given in patent US20110318846, “Aptamer and detection method for C-reactive protein” (National Cheng-Kung University, published 2011).

B1: aptamer B (ssDNA)
DNA: GGCAGGAAGACAAACACACAAGCGGGTGGGTGTGTACTATTGCAGTATCTATTCTGTGGTCTGTGGTGCTGT
B2: aptamer A (ssDNA)
DNA: GGCAGGAAGACAAACACGATGGGGGGGTATGATTTGATGTGGTTGTTGCATGATCGTGGTCTGTGGTGCTGT
modifications: 5'-biotin (SPR and bead assay)

Legend:
C-reactive protein (CRP) [1] = target: T1, C-reactive protein (CRP) (Homo sapiens, UniProt P02741 P02741:19-224); experiment: competition; PCR product 3; CRP-coated tube, competition with free CRP, PCR readout, 25 C; conditions: immobilised on Dynabeads M-450 Epoxy for SELEX, in solution for SPR; chain copies: 5 inferred (pentamer)
T1 sequence: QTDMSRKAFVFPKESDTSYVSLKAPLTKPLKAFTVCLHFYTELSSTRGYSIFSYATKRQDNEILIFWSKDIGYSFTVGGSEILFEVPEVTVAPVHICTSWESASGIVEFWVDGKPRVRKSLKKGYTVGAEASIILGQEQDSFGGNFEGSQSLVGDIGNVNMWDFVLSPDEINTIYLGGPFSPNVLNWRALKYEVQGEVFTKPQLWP

C-reactive protein (CRP) [2] = target: T1, C-reactive protein (CRP); experiment: SPR; Biacore X, SA chip with biotinylated aptamer, 10 mM Tris, 50 mM NaCl, 2 mM CaCl2, 25 C, 1:1 Langmuir; conditions: immobilised on Dynabeads M-450 Epoxy for SELEX, in solution for SPR; chain copies: 5 inferred (pentamer)
Description: Then, 90 μL of the aptamer solution A being cooled to 4° C. is aliquoted, and the aptamer solution A is injected to pass the surface of the SA sensor chip, so that the aptamers A in the aptamer solution A is coated on the surface of the SA sensor chip. Later, 90 μL of the reverse primer solution is injected and passes through the surface of the SA sensor chip for blocking. Subsequently, 5×SSCT buffer is used to wash the surface of the SA sensor chip until the SPR response reaches a balance.
Five cycles as described in the following are then performed. Here, each cycle includes: (1) injecting 90 μL of the testing solution to pass through the surface of the SA sensor chip; (2) washing the surface of the SA sensor chip by using 90 μL of a washing buffer C (10 mM Tris buffer containing 50 mM NaCl and 2 mM CaCl₂); (3) recording the SPR response of the SA sensor chip for 5 min; and (4) injecting 90 μL of 100 mM NaOH to pass the surface of the SA sensor chip, so that the surface of the SA sensor chip is regenerated. The testing solutions used in the five cycles are washing buffers C respectively having a CRP concentration of 0.01, 0.05, 0.1, and 0.5 mg/L.
FIG. 4 is a SPR response measured under different CRP concentrations detected by the SA sensor chip coated with aptamers A along with time in the Biacore X system. […]

| Binder | binding result (C-reactive protein (CRP) [1]) | Kd (C-reactive protein (CRP) [2]) [nM] |
| --- | --- | --- |
| B1 | binds |  |
| B2 |  | 3.51 |
